The text below walks through data of article PMC4354016, “Centromeric binding and activity of Protein Phosphatase 4” (Nature Communications, 2015).

Common to all, as to conditions: both partners purified
For assay [1], the target named is T1, recombinant Flfl^1–168 (untagged) (Drosophila melanogaster, UniProt Q9VFS5 1-168).
T1 construct: pETDuet-1 (MCS1), TEV site between His tag and Flfl; source: E. coli Rosetta2(DE3)pLysS, purified (Ni-NTA, TEV cleavage, re-incubation with Ni-NTA); not shown: 6xHis, N-terminal, cleaved
T1 sequence (looked up): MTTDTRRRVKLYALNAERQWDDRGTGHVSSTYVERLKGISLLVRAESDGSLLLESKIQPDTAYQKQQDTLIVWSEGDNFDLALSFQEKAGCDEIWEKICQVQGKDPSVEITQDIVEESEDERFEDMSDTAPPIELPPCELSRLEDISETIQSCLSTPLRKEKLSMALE
Nature of the assay: SEC; Flfl^1–168 and CENP-C^FBD mixed ~1:1 molar ratio, 16 h on ice, Superdex 200; fractions on SDS-PAGE, Coomassie. (In general: Size exclusion chromatography separates by hydrodynamic size, large species first.)

The target of another assay is T2, Flfl^1–122 (Drosophila melanogaster, UniProt Q9VFS5 1-122).
T2 construct: Falafel (Flfl) residues 1-122, holds the EVH1 domain; residues 4-114 are in the final model; also called Falafel (1–122); His::TEV::Flfl^1–122aa; source: E. coli BL21 (DE3) RIL, purified (HisTrap, TEV cleavage, anion exchange, SEC); not shown: 6xHis, N-terminal, cleaved
T2 sequence (looked up): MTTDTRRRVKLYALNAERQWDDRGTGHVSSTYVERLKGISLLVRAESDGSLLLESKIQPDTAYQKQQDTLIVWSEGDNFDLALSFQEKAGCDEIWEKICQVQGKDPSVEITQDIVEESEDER
Nature of the assay: crystal structure; Flfl^1–122 at 22 mg/ml incubated overnight with FIM peptide 1:1.3, sitting drop, ammonium sulfate; 1.5 Å.

Assay [2] concerns the target T1, recombinant Flfl^1–168 (untagged). Nature of the assay: peptide or protein array; substitution array: every residue of the 19-mer FIM replaced by the other amino acids, on cellulose membrane; 100 nM untagged Flfl^1–168, 4 °C overnight; anti-Flfl detection.

B1: recombinant CENP-C^FBD (untagged) (domain or fragment, Drosophila melanogaster, UniProt Q9VHP9 1002-1093, looked up)
chain: IDQNSDDVPSRNPSPSRTLLSDDVPSTSRAALEFLQRSQNMSKSRPPDESSADVVFKKPLAPAPRAKSKKGKSEVDKLKLAKMPVEAEELNT
notes: pETDuet-1 (MCS1), TEV site between His tag and FBD; also called His::TEV::CENP-C^FBD; source: E. coli Rosetta2(DE3)pLysS, purified (Ni-NTA, TEV cleavage, re-incubation with Ni-NTA); not shown: 6xHis, N-terminal, cleaved
For B1, in assay [1], the binding result is given as “binds”.

B2: CENP-C^FIM peptide (peptide)
peptide: PDESSADVVFKKPLAPAPR
notes: source: synthetic peptide (in solution for crystallisation; spotted onto a cellulose membrane for the substitution array)
With B2, the binding result (with Flfl^1–122; in assay [2]) was “binds” each time.
